Test results reported in article PMC8866402, “Fortilin interacts with TGF-β1 and prevents TGF-β receptor activation” (Communications Biology, 2022).

Legend:
[1] = target: T1, recombinant human Flag-tagged p53 (human, UniProt P04637 1-393); assay: co-IP; in vitro mixture of recombinant Flag-fortilin, TGF-β1, Flag-p53 and His6-NQO2 in Buffer A (10 mM Tris pH 7.4, 100 mM NaCl, 0.01% NP-40); rabbit anti-fortilin mAb or rabbit IgG, 2 h room temperature; anti-rabbit IgG Dynabeads; four washes in Buffer B (0.3% NP-40); western blot; conditions: both partners purified
T1 construct: p53, human; Positive control of the co-IP; also called rh-p53; source: bought: OriGene (Catalog #: TP300003)
T1 sequence (P04637 whole entry): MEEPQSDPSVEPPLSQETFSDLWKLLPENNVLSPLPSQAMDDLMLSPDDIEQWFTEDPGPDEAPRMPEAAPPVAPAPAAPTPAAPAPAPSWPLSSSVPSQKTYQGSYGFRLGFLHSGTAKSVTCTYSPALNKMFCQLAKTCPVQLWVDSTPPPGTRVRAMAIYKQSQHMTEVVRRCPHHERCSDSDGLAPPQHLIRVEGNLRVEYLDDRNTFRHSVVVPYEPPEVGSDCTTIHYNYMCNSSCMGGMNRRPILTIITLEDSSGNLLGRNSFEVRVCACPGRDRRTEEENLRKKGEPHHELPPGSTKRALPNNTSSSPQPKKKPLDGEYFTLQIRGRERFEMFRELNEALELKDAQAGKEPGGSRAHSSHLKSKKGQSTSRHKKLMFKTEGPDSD

[2] = target: T2, recombinant human latency-associated-peptide (LAP)-TGF-β1 protein (human, UniProt P01137 30-278); assay: BLI; BLItz; biotinylated rh-fortilin immobilised on streptavidin biosensors (30 μg/mL, PBS); various concentrations of analyte, 180 s association, 180 s dissociation in PBS; conditions: both partners purified
T2 construct: TGF-β1 precursor, human; 'latency-associated-peptide (LAP)-TGF-β1'; As far as I recall, R&D Systems 246-LP is the LAP of TGF-β1 alone (about Leu30-Arg278 of the precursor), not the latent complex; also called LAP-TGF-β1 molecule; source: bought: R&D Systems (Catalog #: 246-LP-025/CF)
T2 sequence (P01137 30-278): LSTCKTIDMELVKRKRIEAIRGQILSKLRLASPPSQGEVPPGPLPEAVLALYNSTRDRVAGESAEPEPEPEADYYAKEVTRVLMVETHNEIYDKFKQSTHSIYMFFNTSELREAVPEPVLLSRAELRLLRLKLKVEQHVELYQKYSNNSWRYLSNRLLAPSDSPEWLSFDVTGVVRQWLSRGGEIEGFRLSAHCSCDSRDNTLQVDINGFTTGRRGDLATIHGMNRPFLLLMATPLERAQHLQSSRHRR

Row | Binder | binding result [1] | Kd [2]
1 | recombinant human Flag-tagged fortilin (natural protein, fortilin, human; the abstract calls fortilin a 172-amino acid protein; also called rh-fortilin; source: bought: OriGene (Catalog #: TP301664)) MIIYRDLISHDEMFSDIYKIREIADGLCLEVEGKMVSRTEGNIDDSLIGGNASAEGPEGEGTESTVITGVDIVMNHHLQETSFTKEAYKKYIKDYMKSIKGKLEEQRPERVKPFMTGAAEQIKHILANFKNYQFFIGENMNPDGMVALLDYREDGVTPYMIFFKDGLEMEKC | binds | 
2 | biotinylated rh-fortilin (natural protein, human, biotin (NHS-PEG4-biotin), fortilin, human; The BLI methods say only 'rh-fortilin'; also called biotinylated fortilin; source: rh-fortilin biotinylated with NHS-PEG4-biotin and desalted) MIIYRDLISHDEMFSDIYKIREIADGLCLEVEGKMVSRTEGNIDDSLIGGNASAEGPEGEGTESTVITGVDIVMNHHLQETSFTKEAYKKYIKDYMKSIKGKLEEQRPERVKPFMTGAAEQIKHILANFKNYQFFIGENMNPDGMVALLDYREDGVTPYMIFFKDGLEMEKC |  | 930 nM
